# Assay results published in article PMC10334784.
# pKd: −log10 of the molar value.
# Target: HCoV-OC43 nucleocapsid (N) protein, 2X-StrepTag tagged (HCoV-OC43) (UniProt P33469)
# Assay: BLI
# Sequence of HCoV-OC43 nucleocapsid (N) protein, 2X-StrepTag tagged (HCoV-OC43) (P33469 whole entry): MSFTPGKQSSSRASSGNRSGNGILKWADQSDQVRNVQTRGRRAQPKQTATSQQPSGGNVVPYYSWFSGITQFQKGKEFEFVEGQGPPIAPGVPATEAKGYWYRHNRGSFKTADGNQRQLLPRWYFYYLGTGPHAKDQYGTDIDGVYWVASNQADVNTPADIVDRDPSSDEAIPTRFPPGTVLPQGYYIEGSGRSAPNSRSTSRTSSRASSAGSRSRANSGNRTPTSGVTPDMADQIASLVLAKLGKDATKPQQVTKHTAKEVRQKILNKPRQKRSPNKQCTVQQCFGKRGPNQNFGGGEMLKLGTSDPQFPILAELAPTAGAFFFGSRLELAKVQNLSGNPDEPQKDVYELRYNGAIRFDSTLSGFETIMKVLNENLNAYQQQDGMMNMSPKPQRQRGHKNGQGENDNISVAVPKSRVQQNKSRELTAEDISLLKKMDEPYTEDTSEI
substance,measurement,value
CXCL4 (ligand),pKd,6.77
same,koff,0.00088 s⁻¹
same,kon,5300 M⁻¹ s⁻¹
